B1: MBP‐scFv^K20 (scFv, V domains shown)
VH: QVQLQESGTELVRPGASVKLSCKASGYTFTDYYISWVKQRPGQGLEWIARIYPGSGNTFYNEKFKGKATLTAETSSNTAYMQLSSLTSEDSAVYFCAIYYGSGDYWGQGTTVTVSS
VL: DIQLTQSPSSLSASLGGKVTITCKASQDINKYIAWYQHEPGKGPRLLIRYTSKLESGIPSRFSGSGSGRDYSFSISNLEPEDIATYYCLQYYNLWTFGGGTKLEIK
notes: VH of mouse mAb K20; flexible linker, 3x repeat of GGGGS; VL of mouse mAb K20; 71 kDa fusion; a TEV site lies between MBP and the scFv; monovalent; also called MBP‐fused scFv^K20; anti‐β1 integrin scFv^K20; source: High Five insect cells, baculovirus, secreted; purified (IMAC, SEC peak 2); also as culture media containing secreted scFv^K20; not shown: His6, N-terminal, kept; MBP, N-terminal, …
B2: mouse monoclonal anti‐β1 integrin antibody mAb K20 (antibody, V domains shown)
VH: QVQLQESGTELVRPGASVKLSCKASGYTFTDYYISWVKQRPGQGLEWIARIYPGSGNTFYNEKFKGKATLTAETSSNTAYMQLSSLTSEDSAVYFCAIYYGSGDYWGQGTTVTVSS
VL: DIQLTQSPSSLSASLGGKVTITCKASQDINKYIAWYQHEPGKGPRLLIRYTSKLESGIPSRFSGSGSGRDYSFSISNLEPEDIATYYCLQYYNLWTFGGGTKLEIK
notes: VH of mAb K20; constant region of the heavy chain of a mouse IgG; VL of mAb K20; constant region of the light chain of a mouse antibody; Bivalent IgG; also called mAb K20 IgG; parent mAb K20; source: bought: Beckman Coulter; copies: 2 + 2

Target: T1, β1 integrin (Homo sapiens, UniProt P05556)
T1 construct: β1 integrin (integrin beta-1), endogenous on the surface of H1975 and hTERT-RPE1 cells; On cells β1 integrin stands in αβ heterodimers; also called beta‐1 integrin; endogenous β1 integrin; source: endogenous, on H1975 cells; endogenous, on hTERT‐RPE1 cells
T1 sequence (P05556 21-798): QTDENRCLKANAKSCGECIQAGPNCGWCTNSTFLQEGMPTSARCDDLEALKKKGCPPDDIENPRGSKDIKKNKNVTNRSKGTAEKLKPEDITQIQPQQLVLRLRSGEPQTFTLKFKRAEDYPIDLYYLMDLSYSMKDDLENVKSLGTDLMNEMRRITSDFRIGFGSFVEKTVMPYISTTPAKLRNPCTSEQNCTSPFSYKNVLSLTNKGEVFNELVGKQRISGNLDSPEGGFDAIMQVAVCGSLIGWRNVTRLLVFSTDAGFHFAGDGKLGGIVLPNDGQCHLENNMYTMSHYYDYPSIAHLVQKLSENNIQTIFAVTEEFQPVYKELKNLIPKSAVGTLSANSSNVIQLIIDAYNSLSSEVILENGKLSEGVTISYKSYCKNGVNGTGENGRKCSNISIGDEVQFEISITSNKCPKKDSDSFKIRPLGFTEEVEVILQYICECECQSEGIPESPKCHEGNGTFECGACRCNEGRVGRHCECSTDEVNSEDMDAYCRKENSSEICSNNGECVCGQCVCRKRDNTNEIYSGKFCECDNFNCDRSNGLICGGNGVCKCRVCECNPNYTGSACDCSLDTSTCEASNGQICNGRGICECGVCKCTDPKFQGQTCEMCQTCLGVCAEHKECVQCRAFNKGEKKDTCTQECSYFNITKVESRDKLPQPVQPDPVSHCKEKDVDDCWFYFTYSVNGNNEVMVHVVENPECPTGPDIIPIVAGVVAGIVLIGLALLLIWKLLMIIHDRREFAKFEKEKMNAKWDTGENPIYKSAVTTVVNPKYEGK
Assay: ELISA; cell-based ELISA binding isotherm on H1975 cells seeded on gelatin- and fibronectin-coated 96-well plates; antibody dilutions in PBS4+ (1 mM MgCl2, 1 mM CaCl2, 5 mM glucose, 1% BSA), 30 minutes at 4°C; KD as the concentration at half-maximal binding; n = 4
Conditions: one partner purified

| Binder | Kd [nM] |
| --- | --- |
| B1 | 6.54 ± 1.34 |
| B2 | 1.2 ± 0.14 |

— publication PMC7442622, “A functionally neutral single chain antibody to measure beta‐1 integrin uptake and recycling” (Traffic (Copenhagen, Denmark), 2020)
